Molecular target: T1, Elav (Drosophila melanogaster (w1118), UniProt P16914 1-483)
T1 sequence: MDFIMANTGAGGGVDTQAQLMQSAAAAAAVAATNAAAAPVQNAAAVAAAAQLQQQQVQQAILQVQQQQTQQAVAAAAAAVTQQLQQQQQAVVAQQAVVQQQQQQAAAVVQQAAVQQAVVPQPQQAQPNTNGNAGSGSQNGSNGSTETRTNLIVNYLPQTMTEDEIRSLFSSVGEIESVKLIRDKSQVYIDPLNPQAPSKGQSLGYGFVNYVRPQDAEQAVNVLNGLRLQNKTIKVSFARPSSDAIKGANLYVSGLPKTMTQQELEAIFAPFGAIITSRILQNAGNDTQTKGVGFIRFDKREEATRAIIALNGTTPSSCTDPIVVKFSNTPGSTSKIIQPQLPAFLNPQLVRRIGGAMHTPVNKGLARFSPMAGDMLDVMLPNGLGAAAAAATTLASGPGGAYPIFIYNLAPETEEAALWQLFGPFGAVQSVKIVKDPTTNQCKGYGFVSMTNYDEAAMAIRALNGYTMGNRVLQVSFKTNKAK
Assay: EMSA

## UGUGUAAGUGAGUACGGUCGCUGUGGUGUGAUGAUGGGUGUGG (ssRNA, U to G substitutions disrupting U-rich stretches) [Dscam1 EBS mutant probe]
  binding result: no binding
